Experiment: soluble on expression in E. coli; label from the status in PepcDB or PDB records

Sequence | soluble on expression in E. coli
MGSDKIHHHHHHMTAFSFLGDKYHDHDLFLETLKYALNCEINDLRPEDFPEIRKLPDLVVIGRWNLLDDETPWLKEGDIKILVDYVRSGGKLFVWHSGLARFPESYNGLVGGRFIHHPPQKKVRYYGKDIEFELVDEHYFVDLYSDVEIFLWSESDDGTSIAGWRRRYHNGKILALTPAHSEGLKDQVFRDFLKKVLNTFVNQTSW | not soluble
GRTVVVLGGGISGLAASYHLSRAPCPPKVVLVESSERLGGWIRSVRGPNGAIFELGPRGIRPAGALGARTLLLVSELGLDSEVLPVRGDHPAAQNRFLYVGGALHALPTGLRGLLRPSPPFSKPLFWAGLRELTKPRGKEPDETVHSFAQRRLGPEVASLAMDSLCRGVFAGNSRELSIRSCFPSLFQAEQTHRSILLGLLLGAGRTPQPDSALIRQALAERWSQWSLRGGLEMLPQALETHLTSRGVSVLRGQPVCGLSLQAEGRWKVSLRDSSLEADHVISAIPASVLSELLPAEAAPLARALSAITAVSVAVVNLQYQGAHLPVQGFGHLVPSSEDPGVLGIVYDSVAFPEQDGSPPGLRVTVMLGGSWLQTLEASGCVLSQELFQQRAQEAAATQLGLKEMPSHCLVHLHKNCIPQYTLGHWQKLESARQFLTAHRLPLTLAGASYEGVAVNDCIESGRQAAVSVLGTEPNS | soluble
MGSDKIHHHHHHMKRKTKLDKKSKWVLDMKFGVSSLVFLPESLTSSMEKIAEHNFDAWEIVCEGTHYLSPKNIKYLMELRDRYEVEIVVHAPFSDLNPASMNERVRKLTVECIRDAIEGAFELDSEVVVVHPGYIPELWSNYVSEILDNNFSTLSEIVEIAEDYGIKIGLENMPNFRGVLGITPESLLEIVKDIDSKNLGITFDIGHANTAGNPAEFVEKLQNIGIGIIHVHAHDNNGYDDEHLKIGEGNINFIEVLEKLKEIGYDGVISIENKNIRDAVKSKEILKEYLEIVNEKVAEKEKIEE | not soluble
MGSDKIHHHHHHMKTEIVEIESECLKDNFLKDDWKRQILVYRPDDAEGGLPLFIELAGTNWRPRTHNKFSLIIEKLFSSGLKAVVLNPNFSTRYNMNQYLNSPAVGSYEDFIVKELIPYFKDKYGTDHTALFGKSSGGFGSYTLAARHPDIIDGFADHFGDSCFFYLYADDMAAAFRYIQRHGKSESVKMLTSHMPSDDEMKVLNVIGSSAFYSPDMNDVNGFDLPFDEDTGELIEDVWQRWVQFDPAKNVLKYSGALKKMKAIYLDVGTNDEYKLYIGTRALHKKLGLANIDHYYEEFNGGHFGNSERYLYSLPFLYRKLNDTA | not soluble
MKVAIIAANGGLFDAYKVINIGTAGAAADAEVGVFFTGEGLNLIHKEAHKQWPIPEGKEHFQQGFQKANVPSIAELLQMAQEMGVKLIACQMTMDVMGLDKDQFVDGIEVAGAATFLQFAKDADITLAF | not soluble
MIITVTAFKGGVGKTTSSIHLAAYLNNKAPTILIDGDLNRSALLWASHEKLDFPVVDEREGLKAARNYEHIVVDTPARPEIEEIRSLARGCDLMILPTSPDALSMGALQANIQTFKQLNIPNFRILMTIVPPKPSTAGTEAKEYLQSLGLPVFKRMITRYAAFPKAALEGCVVRDVKGDRYAGAGWNDYKTVGGEIYGLEHHHHHH | soluble
MKMKEFLDLLNESRLTVTLTGAGISTPSGIPDFRGPNGIYKKYSQNVFDIDFFYSHPEEFYRFAKEGIFPMLQAKPNLAHVLLAKLEEKGLIEAVITQNIDRLHQRAGSKKVIELHGNVEEYYCVRCEKKYTVEDVIKKLESSDVPLCDDCNSLIRPNIVFFGENLPQDALREAIGLSSRASLMIVLGSSLVVYPAAELPLITVRSGGKLVIVNLGETPFDDIATLKYNMDVVEFARRVMEEGGIS | soluble
MVKCMKPGKAVILLQGRYTGKKAVIVKSFDDGTVEKKYGHCLVAGLKKYPSKVIRKDSAKKTAKKSRVKCFFKVINYQHVMPTRYTLDLDLKNVVSADAISSKDKKVTALKEAKAKFEERFKTGKNRWFFTKLRF | not soluble
MPTVRVKEGENPEYALRRFKRSCEKAGILTELRRREFYEKPTAERKRKQAAAVKRHLKKISRDVSSRRGVGHRRKKSTTLEHHHHHH | not soluble
MSLHEMSFAEAIIRNVLRFAEEKQAKTVTSVRVRVGELLLINPEQLQFCFSVASKGTIAEGAKLEISVERADIRCLLCGRELSKDEMLCECGGFAQVKGGKDFILESVVVEVEGHHHHHH | soluble
MPCVFQIWEKGMEKQEIGIYGREKMFMRKKENELQIDWKHFYLGVLALVIPMALQNLINVGVTAADVVMLGRVGETALSGSSLAGQVQY | not soluble
MVLAALVLVLEGEGLPEPLGLRGFFYGLLREVAPEVHDQGENPFALGFGGREGAAWARVSLLVEGLYARLAPRLYALEGEEVRLGPPFRVRAVLQEGHPWAGVSTYPRLFQGPPSRDLALRFASPTFFRRKGVHYPVPEPRLVLESLLRRLEAFGPLKAPEGVREALLERTTVRSLEGRTLPARTEVDTAGFVGRVVYHLPRATEEEALWLSALGRFAFYSGVGAKTSLGYGRARAESA | soluble
MAHHHHHHMNVALIFGITGQDGSYLSELLLEKGYTVHGVIRRCSSFNTKRIDHIFDQLNLHYGDVLDSSSICKLISKIKPHEIYNLAAQSHVKVSFELPVYTAETTAVGTLRILEAIKISNLPDVKFYNASTSELFGSSTDDRQHESTPFNPVSPYAIAKLYSHYITICYRKSYQMFCVNGILFNHESPRRGETFVTRKITRGVANICKNRQNCLVLGDLSTYRDWGHAKDYVRAMYLMLQQDEPDDFVISSNEKHTVKEFCEISFSFVGIFLKWKGTGIQEVGVDQHDRVLIKKDPRYYRECDVFHLHGDSSKARQKLQWAPTYSFFQLIYEMLTYDFEQCSLPIDDFDTCVSRYENYRGVPTK | not soluble
QEPFHVVTPLLESWALSQVAGMPVFLKCENVQPSGSFKIRGIGHFCQEMAKKGCRHLVCSSGGNAGIAAAYAARKLGIPATIVLPESTSLQVVQRLQGEGAEVQLTGKVWDEANLRAQELAKRDGWENVPPFDHPLIWKGHASLVQELKAVLRTPPGALVLAVGGGGLLAGVVAGLLEVGWQHVPIIAMETHGAHCFNAAITAGKLVTLPDITSVAKSLGAKTVAARALECMQVCKIHSEVVEDTEAVSAVQQLLDDERMLVEPACGAALAAIYSGLLRRLQAEGCLPPSLTSVVVIVCGGNNINSRELQALKTHLGQ | soluble
MPSISPASDADRALVIGSGLGGLAAAMRLGAKGWRVTVIDKLDVPGGRGSSITQEGHRFDLGPTIVTVPQSLRDLWKTCGRDFDADVELKPIDPFYEVRWPDGSHFTVRQSTEAMKAEVARLSPGDVAGYEKFLKDSEKRYWFGYEDLGRRSMHKLWDLIKVLPTFGMMRADRSVYQHAALRVKDERLRMALSFHPLFIGGDPFNVTSMYILVSQLEKEFGVHYAIGGVAAIAAAMAKVIEGQGGSFRMNTEVDEILVEKGTATGVRLASGEVLRAGLVVSNADAGHTYMRLLRNHPRRRWTDAHVKSRRWSMGLFVWYFGTKGTKGMWPDVGHHTIVNAPRYKGLVEDIFLKGKLAKDMSLYIHRPSITDPTVAPEGDDTFYALSPVPHLKQAQPVDWQAVAEPYRESVLEVLEQSMPGIGERIGPSLVFTPETFRDRYLSPWGAGFSIEPRILQSAWFRPHNISEEVANLFLVGAGTHPGAGVPGVIGSAEVMAKLAPDAPRARREAEPAERLAAELEHHHHHH | not soluble
MERMSDSADKPIDNDAEGVWSPDIEQSFQEALAIYPPCGRRKIILSDEGKMYGRNELIARYIKLRTGKTRTRKQVSSHIQVLARRKSRDFHSKLKDQTAKDKALQHMAAMSSAQIVSATAIHNKLGLPGIPRPTFPGGPGFWPGMIQTGQPGSSQDVKPFVQQAYPIQPAVTAPIPGFEPTSAPAPSVPAWQGRSIGTTKLRLVEFSAFLEQQRDPDSYNKHLFVHIGHANHSYSDPLLESVDIRQIYDKFPEKKGGLKELFGKGPQNAFFLVKFWADLNCNIQDDAGAFYGVSSQYESSENMTVTCSTKVCSFGKQVVEKVETEYARFENGRFVYRINRSPMCEYMINFIHKLKHLPEKYMMNSVLENFTILLVVTNRDTQETLLCMACVFEVSNSEHGAQHHIYRLVKD | soluble
MGSDKIHHHHHHMEHGTESFWTDIKRYEDILAKDPGSYCFAPLSELYRKVGLLDDAIMTARTGIGQHPEYVGGYMALGRACFEKGERTESRAALEKVVRVTPDNLLAQKLLSQIYVDAGESDLARRCLEIILSLSPGDLESKLMLDAMCRQPRENADRADDLFNEMGAAAAIDLEDESLLEEIEIIEELVDEVVDEEDLAAFTAHAPPPPLAEESFADVLLDEEPVANADVPSPRDVLSTGTVADLYIAQGFPKKALAIYRDLLDADPLNEDIRNRMVDLKKRIDEDEARARESVLAEAVSATDTTAQIQGDLTADREAFKEEAASGFAVESAHEVDIPLEVAVSAESSLNVAEEKEASAAHVVSALEGWLDSIRRIRQCRSVLH | not soluble
MTFLRYAIYFLPPASEAWAGFGASWLGWDVETGQELAHPAETGLDVAALTATPRKYGLHATMKPPFRLAEGQDVDALRRACATLAASRPAVTLDGLEIARLGRFLALRPVGELGALNALAAACVTELDPFRAPATPQELVRRRAARLSPEQDAHLLSWGYPYVLDQFRFHITLTGRLDDDMLMQAQTLLQRRLGPLLPVPFTLADLALVGEAGDGRFHLIHRYALSR | not soluble
MEKSGGRIVMDEIRSFEKAHLFDLGHPLLNRIADSFVKAAGVSFDSNNVGPPSEITGNKKHRFPNLRGESSKSLDALVKNTGKESLQWGLAAGLYSGITYGMTEVRGGAHDWRNSAVAGALTGAAMAMTTSERTSHEQVVQSALTGAAISTAANLLSSVF | soluble
MGSDKIHHHHHHMETSAPRAGSQVVATTARHSAAYRADPLRVSSRDKLTEMAASSQGNFEGNFESLDLAEFAKKQPWWRKLFGQESGPSAEKYSVATQLFIGGVTGWCTGFIFQKVGKLAATAVGGGFFLLQLANHTGYIKVDWQRVEKDMKKAKEQLKIRKSNQIPTEVRSKAEEVVSFVKKNVLVTGGFFGGFLLGMAS | not soluble
MARILAIDDEDGILYIIKSALEKEGHEVTAVSNPLTIPKEKFCHYDLILLDVMMPEIDGFTLCKEIRDFVDSPIVFLTAKTMEKDLITGLSLGGDDYITKPFGIGELRARVSAHVRREHREKQNAFFLSGLTFHLSCKEIWYDDTSIAFTKSEYGICEYLALNHGQVFSREKIYENVFGYEGESDNQVIVEHIKNIRHKLSKYGMNPIETVWGIGYKWRK | not soluble
MPSRYTNILVPVDSSDAAQAAFTEAVNIAQRHQANLTALYVVDDSAYHTPALDPVLSELLDAEAAHAKDAMRQRQQFVATTSAPNLKTEISYGIPKHTIEDYAKQHPEIDLIVLGATGTNSPHRVAVGSTTSYVVDHAPCNVIVIR | not soluble
MSTGATIVIDLGKTLSKVSLWDLDGRMLDRQVRPSIPLEIDGIRRLDAPDTGRWLLDVLSRYADHPVTTIVPVGHGAGIAALTDGRLAFPPLDYEQSIPEAVMADYRSQRDPFARTGSPALPDGLNIGSQLWWLDQLHPDVMANATLLPWAQYWAWFLTGRAVSEVTSLGCHSDLWDPQDGDFSPMAKRLGWAARFAPIVRAGDTVGALLPAIAERTGLSPDVQVLAGLHDSNAALLAARLEHHHHHH | not soluble
IIGGREVIPHSRPYMASLQRNGSHLCGGVLVHPKWVLTAAHCLAQRMAQLRLVLGLHTLDSPGLTFHIKAAIQHPRYKPVPALENDLALLQLDGKVKPSRTIRPLALPSKRQVVAAGTRCSMAGWGLTHQGGRLSRVLRELDLQVLDTRMCNNSRFWNGSLSPSMVCLAADSKDQAPCKGDSGGPLVCGKGRVLAGVLSFSSRVCTDIFKPPVATAVAPYVSWIRKVTGRSALEHHHHHH | soluble

— the DeepSol protein solubility set
